The text below walks through data of the supplement of paper PMC10567573.

To fix the notation:
B1: ZNF449 (parent)
chain: HKKKSPGEKPHRCPQCGKCFARKS
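Further: lentivirally expressed fusions sorted by FACS into six bins by GFP to DsRed ratio, PSI derived from sequencing read proportions per bin multiplied by bin number.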

The variants in this data set derive from B1. The experiment in a line: protein stability index of a GFP-peptide fusion (GPS, HEK-293T) (PSI 1-6); higher = more stable. The settings on record: c terminus: a fixed tail appended.
HKKKSPGEKPHRCWQCGKCFARKS [P14W]: the protein stability index was 2.57.

On to HKKKSPGEKPHRCHQCGKCFARKS [P14H], for which the protein stability index came out at 3.26.

HKKKSPGEKPHRCIQCGKCFARKS [P14I]: the protein stability index turned out to be 3.62.

On to HKKKSPGENPHRCPQCGKCFARKS [K9N], for which the protein stability index came out at 4.35.

As for HKKKSPGELPHRCPQCGKCFARKS [K9L], the protein stability index is 2.42.

As to HKKKSPGEHPHRCPQCGKCFARKS [K9H], the protein stability index stood at 2.57.

For the variant HKKKSPGEMPHRCPQCGKCFARKS [K9M], the protein stability index came to 4.23.

Turning to HKKKSPGEYPHRCPQCGKCFARKS [K9Y], the protein stability index turned out to be 3.75.

Consider HKKKSPGEWPHRCPQCGKCFARKS [K9W], for which the protein stability index stood at 3.66.

As to HKKKSPGEFPHRCPQCGKCFARKS [K9F], the protein stability index was found to be 3.38.

For the variant HKKKSPGERPHRCPQCGKCFARKS [K9R], the protein stability index turned out to be 3.94.

For HKKKSPGEKPHRCPQCGKCEARKS [F20E], the protein stability index came to 4.11.

In the case of HKKKSPGEKPHRCPQCGKCIARKS [F20I], the protein stability index came out at 4.38.

For the variant HKKKSPGEKPHRCPQCGKCAARKS [F20A], the protein stability index stood at 3.64.

For the variant HKKKSPGEKPHRCPQCGKCLARKS [F20L], the protein stability index was 4.18.

Take HKKKSPGEKPHRCPQCGKCNARKS [F20N]: the protein stability index came out at 5.19.

Turning to HKKKSPGEKPHRCPQCGKCRARKS [F20R], the protein stability index is 3.96.

Turning to HKKKSPGEKPHRCPQCHKCFARKS [G17H], the protein stability index stood at 3.44.

On to HKKKSPGEKPHRCPQCQKCFARKS [G17Q], for which the protein stability index came to 3.66.

Take HKKKSPGEKPHRCPQCNKCFARKS [G17N]: the protein stability index turned out to be 3.75.

With HKKKSPGEKPHRCPQCDKCFARKS [G17D], the protein stability index amounted to 3.86.

As to HKKKSPGEKPHRCPQCWKCFARKS [G17W], the protein stability index amounted to 3.41.

Regarding HKKKSPGEKPHRCPQCCKCFARKS [G17C], the protein stability index was 3.31.

As to HKKKSPGEKAHRCPQCGKCFARKS [P10A], the protein stability index turned out to be 4.54.

Consider HKKKSPGEKVHRCPQCGKCFARKS [P10V], for which the protein stability index was determined as 3.65.

Take HKKKSPGEKDHRCPQCGKCFARKS [P10D]: the protein stability index worked out at 3.74.

With HKKKSPGEKNHRCPQCGKCFARKS [P10N], the protein stability index worked out at 3.3.

Turning to HKKKSPGEKEHRCPQCGKCFARKS [P10E], the protein stability index was found to be 3.52.

Take HKKKSPGEKTHRCPQCGKCFARKS [P10T]: the protein stability index stood at 3.83.

Take HKKKSPGEKFHRCPQCGKCFARKS [P10F]: the protein stability index was 3.15.

As to HKKKSPGEKRHRCPQCGKCFARKS [P10R], the protein stability index came to 3.31.

Regarding HKKKSPGEKKHRCPQCGKCFARKS [P10K], the protein stability index was 4.63.

On to HKKKSPGEKLHRCPQCGKCFARKS [P10L], for which the protein stability index was found to be 4.06.

HKKKSPGEKPHRCPQCGKFFARKS [C19F]: the protein stability index turned out to be 3.48.

With HKKKSPGEKPHRCPQCGKYFARKS [C19Y], the protein stability index worked out at 3.99.

On to HKKKSPGEKPHRCPQCGKHFARKS [C19H], for which the protein stability index is 4.35.

As for HKKKSPGEKPHRCPQCGKIFARKS [C19I], the protein stability index stood at 4.05.

With HKKKSPGEKPHRCPQCGKNFARKS [C19N], the protein stability index came to 3.79.

In the case of HKKKSPGEKPHRCPQCGKVFARKS [C19V], the protein stability index is 3.41.

HKKKSPGEKPHRCPQCGKMFARKS [C19M]: the protein stability index is 2.54.

For HKKWSPGEKPHRCPQCGKCFARKS [K4W], the protein stability index came out at 2.98.

In the case of HKKMSPGEKPHRCPQCGKCFARKS [K4M], the protein stability index was determined as 3.37.

With HKKPSPGEKPHRCPQCGKCFARKS [K4P], the protein stability index came out at 3.72.

Turning to HKKTSPGEKPHRCPQCGKCFARKS [K4T], the protein stability index came out at 3.89.

HKKHSPGEKPHRCPQCGKCFARKS [K4H]: the protein stability index amounted to 3.41.

With HKKGSPGEKPHRCPQCGKCFARKS [K4G], the protein stability index is 3.13.

On to HKKQSPGEKPHRCPQCGKCFARKS [K4Q], for which the protein stability index is 2.84.

For the variant HKKYSPGEKPHRCPQCGKCFARKS [K4Y], the protein stability index is 2.33.

HKWKSPGEKPHRCPQCGKCFARKS [K3W]: the protein stability index is 3.1.

Regarding HKGKSPGEKPHRCPQCGKCFARKS [K3G], the protein stability index is 3.33.

With HKHKSPGEKPHRCPQCGKCFARKS [K3H], the protein stability index came to 4.24.

Turning to HKLKSPGEKPHRCPQCGKCFARKS [K3L], the protein stability index stood at 3.46.

For HKYKSPGEKPHRCPQCGKCFARKS [K3Y], the protein stability index worked out at 2.02.

Turning to HKMKSPGEKPHRCPQCGKCFARKS [K3M], the protein stability index is 3.42.

Take HKTKSPGEKPHRCPQCGKCFARKS [K3T]: the protein stability index was 2.07.

Regarding HKRKSPGEKPHRCPQCGKCFARKS [K3R], the protein stability index came to 3.46.

Take HKKKSPGEKPHTCPQCGKCFARKS [R12T]: the protein stability index came out at 2.74.

For HKKKSPGEKPHYCPQCGKCFARKS [R12Y], the protein stability index came to 3.3.

Consider HKKKSPGEKPHLCPQCGKCFARKS [R12L], for which the protein stability index was determined as 3.85.

As to HKKKSPGEKPHNCPQCGKCFARKS [R12N], the protein stability index stood at 3.92.

On to HKKKSPGEKPHPCPQCGKCFARKS [R12P], for which the protein stability index worked out at 2.74.

Turning to HKKKSPGEKPHKCPQCGKCFARKS [R12K], the protein stability index was determined as 3.98.

Consider HKKKSPGEKPHRCPFCGKCFARKS [Q15F], for which the protein stability index is 3.19.

In the case of HKKKSPGEKPHRCPHCGKCFARKS [Q15H], the protein stability index was 3.24.

For the variant HKKKSPGEKPHRCPWCGKCFARKS [Q15W], the protein stability index is 3.45.

In the case of HKKKSPGEKPHRCPECGKCFARKS [Q15E], the protein stability index came to 3.38.

For HKKKSPGEKPHRCPICGKCFARKS [Q15I], the protein stability index was 3.45.

On to HKKKSPGEKPHRCPQCGKCFADKS [R22D], for which the protein stability index stood at 3.82.

For the variant HKKKSPGEKPHRCPQCGKCFAKKS [R22K], the protein stability index amounted to 3.83.

For the variant HKKKSPGEKPHRCPQCGKCFAGKS [R22G], the protein stability index worked out at 3.46.

HKKKSPGEKPHRCPQCGKCFATKS [R22T]: the protein stability index was 4.06.

HKKKSPGEKPHRCPQCGKCFAHKS [R22H]: the protein stability index is 3.83.

For the variant HKKKSPGEKPHRCPQCGKCFALKS [R22L], the protein stability index was 3.64.

On to HKKKSPGEKPHRCPQCGKCFAMKS [R22M], for which the protein stability index is 3.33.

Consider HKKKSPGEKPHRCPQCGKCFARKK [S24K], for which the protein stability index was found to be 3.99.

As to HKKKSPGEKPHRCPQCGKCFARKF [S24F], the protein stability index turned out to be 1.99.

Regarding HKKKSPGEKPHRCPQCGKCFARKD [S24D], the protein stability index was determined as 3.97.

On to HKKKSPGEKPHRCPQCGKCFARKT [S24T], for which the protein stability index came to 3.8.

In the case of HKKKSPGEKPHRCPQCGKCFARKV [S24V], the protein stability index was determined as 1.78.

On to IKKKSPGEKPHRCPQCGKCFARKS [H1I], for which the protein stability index is 2.06.

Regarding LKKKSPGEKPHRCPQCGKCFARKS [H1L], the protein stability index came to 2.54.

TKKKSPGEKPHRCPQCGKCFARKS [H1T]: the protein stability index was 2.88.

Take RKKKSPGEKPHRCPQCGKCFARKS [H1R]: the protein stability index was determined as 3.53.

Consider KKKKSPGEKPHRCPQCGKCFARKS [H1K], for which the protein stability index came to 3.5.

As to DKKKSPGEKPHRCPQCGKCFARKS [H1D], the protein stability index stood at 3.73.

Turning to SKKKSPGEKPHRCPQCGKCFARKS [H1S], the protein stability index was 4.38.

Regarding WKKKSPGEKPHRCPQCGKCFARKS [H1W], the protein stability index came out at 2.7.

On to VKKKSPGEKPHRCPQCGKCFARKS [H1V], for which the protein stability index came to 3.15.

As to HKKKSPAEKPHRCPQCGKCFARKS [G7A], the protein stability index stood at 3.46.

Turning to HKKKSPPEKPHRCPQCGKCFARKS [G7P], the protein stability index amounted to 4.25.

Regarding HKKKSPVEKPHRCPQCGKCFARKS [G7V], the protein stability index is 3.76.

As to HKKKSPNEKPHRCPQCGKCFARKS [G7N], the protein stability index turned out to be 3.52.

Regarding HKKKSPFEKPHRCPQCGKCFARKS [G7F], the protein stability index came out at 3.53.

With HKKKSPIEKPHRCPQCGKCFARKS [G7I], the protein stability index was 2.94.
